According to publication PMC5958125, “IgG-single-chain TRAIL fusion proteins for tumour therapy” (Scientific Reports, 2018):

Tests used:
Test in all cases: ELISA; TRAILR1-Fc or TRAILR2-Fc coated (200 ng/well in 0.1 M sodium carbonate buffer, pH 9.5), samples in 3% skim milk/PBS titrated 1:3 from 150 nM, 2 h room temperature, concentrations normalised to one scTRAIL unit, detected with anti-FLAG M2-HRP
TRAILR2-Fc [1] = target: TRAILR2-Fc (UniProt O14763)
TRAILR2-Fc [2] = target: T1, TRAILR2-Fc (UniProt O14763 56-210); conditions: both partners purified
T1 construct: TRAIL receptor 2 (TRAILR2); Probably the extracellular domain fused to an Fc

TRAILR1-Fc = target: T2, TRAILR1-Fc (UniProt O00220 24-239); conditions: both partners purified
T2 construct: TRAIL receptor 1 (TRAILR1); Probably the extracellular domain fused to an Fc
T2 sequence (O00220 24-239): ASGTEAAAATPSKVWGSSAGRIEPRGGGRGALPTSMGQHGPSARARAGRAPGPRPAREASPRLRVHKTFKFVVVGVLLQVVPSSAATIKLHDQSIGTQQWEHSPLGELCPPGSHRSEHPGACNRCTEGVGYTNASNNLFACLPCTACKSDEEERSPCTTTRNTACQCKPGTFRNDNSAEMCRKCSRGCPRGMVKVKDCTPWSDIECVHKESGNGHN

| Molecule | EC50 (TRAILR2-Fc [1]) [nM] | EC50 (TRAILR2-Fc [2]) [nM] | EC50 (TRAILR1-Fc) [nM] |
| --- | --- | --- | --- |
| HC-scTRAIL (fusion of scTRAIL to hu225 IgG heavy chains) | 0.8 |  |  |
| LC-scTRAIL (fusion of scTRAIL to hu225 IgG light chains) | 0.9 |  |  |
| LC/HC-scTRAIL (fusion of scTRAIL to both hu225 IgG chains) | 3.4 |  |  |
| Fc-scTRAIL-FAVSGAA (Fc fusion) AAHITGTRGRSNTLSSPNSKNEKALGRKINSWESSRSGHSFLSNLHLRNGELVIHEKGFYYIYSQTYFRFQEEIKENTKNDKQMVQYIYKYTSYPDPILLMKSARNSCWSKDAEYGLYSIYQGGIFELKENDRIFVSVTNEHLIDMDHEASFFGAFAVSGAAHITGTRGRSNTLSSPNSKNEKALGRKINSWESSRSGHSFLSNLHLRNGELVIHEKGFYYIYSQTYFRFQEEIKENTKNDKQMVQYIYKYTSYPDPILLMKSARNSCWSKDAEYGLYSIYQGGIFELKENDRIFVSVTNEHLIDMDHEASFFGAFAVSGAAHITGTRGRSNTLSSPNSKNEKALGRKINSWESSRSGHSFLSNLHLRNGELVIHEKGFYYIYSQTYFRFQEEIKENTKNDKQMVQYIYKYTSYPDPILLMKSARNSCWSKDAEYGLYSIYQGGIFELKENDRIFVSVTNEHLIDMDHEASFFGAFAVS |  | 1.1 | 7.3 |
